From paper PMC9482650, “Quantitative fragmentomics allow affinity mapping of interactomes” (Nature Communications, 2022)

How the values were obtained:
Assay in all cases: holdup assay
Set-up in all cases: key: below the threshold = too weak to quantify, mostly under pKd 3.1 to 4
DLG1_1, Q12959 = target: DLG1_1, Q12959
SNTB1, Q13884 = target: T1, SNTB1, Q13884
T1 sequence (Q13884 107-205, limits assumed, looked up): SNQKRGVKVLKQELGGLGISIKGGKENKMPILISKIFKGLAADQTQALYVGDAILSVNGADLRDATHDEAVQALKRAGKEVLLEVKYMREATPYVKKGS

SIPA1L2, Q9P2F8 = target: T2, SIPA1L2, Q9P2F8
T2 sequence (Q9P2F8 945-1036, limits assumed, looked up): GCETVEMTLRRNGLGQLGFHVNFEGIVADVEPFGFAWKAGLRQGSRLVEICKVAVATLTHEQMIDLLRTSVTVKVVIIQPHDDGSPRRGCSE

GRIP1_3, Q9Y3R0 = target: T3, GRIP1_3, Q9Y3R0
T3 sequence (Q9Y3R0 247-346, limits assumed, looked up): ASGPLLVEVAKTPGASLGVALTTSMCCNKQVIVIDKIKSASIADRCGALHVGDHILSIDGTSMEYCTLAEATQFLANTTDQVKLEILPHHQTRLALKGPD

APBA2_2, Q99767 = target: T4, APBA2_2, Q99767
T4 sequence (Q99767 654-744, limits assumed, looked up): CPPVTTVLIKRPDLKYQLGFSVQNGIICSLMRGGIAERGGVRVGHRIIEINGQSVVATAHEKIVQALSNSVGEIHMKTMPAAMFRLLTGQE

FRMPD2_2, Q68DX3 = target: FRMPD2_2, Q68DX3
FRMPD2_2, Q68DX3, sequence (Q68DX3 944-1038): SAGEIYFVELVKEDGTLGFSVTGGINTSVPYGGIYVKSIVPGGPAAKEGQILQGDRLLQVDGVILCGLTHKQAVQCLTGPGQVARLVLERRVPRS

NHERF2_2, Q15599 = target: NHERF2_2, Q15599
NHERF2_2, Q15599, sequence (Q15599 142-238): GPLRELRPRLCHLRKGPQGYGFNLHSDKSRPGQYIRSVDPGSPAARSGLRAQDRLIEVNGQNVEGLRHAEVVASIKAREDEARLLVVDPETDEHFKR

RAPGEF6, Q8TEU7 = target: T5, RAPGEF6, Q8TEU7
T5 sequence (Q8TEU7 525-625, limits assumed, looked up): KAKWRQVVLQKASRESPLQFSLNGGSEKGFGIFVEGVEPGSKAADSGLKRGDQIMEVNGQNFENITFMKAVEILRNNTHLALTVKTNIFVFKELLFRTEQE

MAGI2_3, Q86UL8 = target: MAGI2_3, Q86UL8
MAGI2_3, Q86UL8, sequence (Q86UL8 600-682): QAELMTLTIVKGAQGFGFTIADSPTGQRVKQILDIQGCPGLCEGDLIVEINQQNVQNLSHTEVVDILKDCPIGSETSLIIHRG

MPDZ_5, O75970 = target: T6, MPDZ_5, O75970
T6 sequence (O75970 695-796, limits assumed, looked up): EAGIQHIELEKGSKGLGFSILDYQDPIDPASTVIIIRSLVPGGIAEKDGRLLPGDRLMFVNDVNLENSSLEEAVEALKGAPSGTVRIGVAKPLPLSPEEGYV

HTRA1, Q92743 = target: HTRA1, Q92743
HTRA1, Q92743, sequence (Q92743 360-477): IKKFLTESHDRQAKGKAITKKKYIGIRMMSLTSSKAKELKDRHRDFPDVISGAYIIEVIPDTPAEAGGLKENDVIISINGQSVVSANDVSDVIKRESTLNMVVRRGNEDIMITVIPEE

LDB3, O75112 = target: LDB3, O75112
LDB3, O75112, sequence (O75112 1-94): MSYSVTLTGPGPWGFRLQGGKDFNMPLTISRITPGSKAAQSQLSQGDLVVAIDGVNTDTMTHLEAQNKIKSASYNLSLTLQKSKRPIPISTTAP

GRIP2_5, Q9C0E4 = target: GRIP2_5, Q9C0E4
GRIP2_5, Q9C0E4, sequence (Q9C0E4 544-642): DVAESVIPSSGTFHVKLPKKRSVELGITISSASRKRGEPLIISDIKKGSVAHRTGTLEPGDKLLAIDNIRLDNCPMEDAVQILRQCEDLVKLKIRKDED

PTPN3, P26045 = target: PTPN3, P26045
PTPN3, P26045, sequence (P26045 505-587): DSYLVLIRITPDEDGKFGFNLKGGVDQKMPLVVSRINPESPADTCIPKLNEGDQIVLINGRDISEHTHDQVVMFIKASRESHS

HTRA4, P83105 = target: T7, HTRA4, P83105
T7 sequence (P83105 378-476, limits assumed, looked up): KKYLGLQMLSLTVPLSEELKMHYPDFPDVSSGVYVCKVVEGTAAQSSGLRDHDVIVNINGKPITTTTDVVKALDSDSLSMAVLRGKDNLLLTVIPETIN

IL16_1, Q14005 = target: IL16_1, Q14005
IL16_1, Q14005, sequence (Q14005 210-306): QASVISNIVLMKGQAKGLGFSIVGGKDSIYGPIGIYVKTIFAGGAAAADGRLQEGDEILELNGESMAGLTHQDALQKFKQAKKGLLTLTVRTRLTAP

TIAM2, Q8IVF5 = target: T8, TIAM2, Q8IVF5
T8 sequence (Q8IVF5 885-986, limits assumed, looked up): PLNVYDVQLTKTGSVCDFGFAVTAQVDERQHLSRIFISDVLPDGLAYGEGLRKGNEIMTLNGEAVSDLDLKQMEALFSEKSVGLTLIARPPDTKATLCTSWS

LRRC7, Q96NW7 = target: T9, LRRC7, Q96NW7
T9 sequence (Q96NW7 1440-1537, limits assumed, looked up): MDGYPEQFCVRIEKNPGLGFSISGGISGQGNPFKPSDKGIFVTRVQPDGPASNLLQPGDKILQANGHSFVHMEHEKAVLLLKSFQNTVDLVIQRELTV

LNX2_3, Q8N448 = target: T10, LNX2_3, Q8N448
T10 sequence (Q8N448 463-564, limits assumed, looked up): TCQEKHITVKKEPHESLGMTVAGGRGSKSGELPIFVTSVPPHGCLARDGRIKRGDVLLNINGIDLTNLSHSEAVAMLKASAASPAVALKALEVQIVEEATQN

DLG4_3, P78352 = target: DLG4_3, P78352
DLG4_3, P78352, sequence (P78352 306-403): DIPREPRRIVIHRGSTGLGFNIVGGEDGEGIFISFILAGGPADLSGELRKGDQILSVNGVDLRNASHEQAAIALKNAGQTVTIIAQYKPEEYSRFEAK

MAGI2_2, Q86UL8 = target: MAGI2_2, Q86UL8
MAGI2_2, Q86UL8, sequence (Q86UL8 410-522): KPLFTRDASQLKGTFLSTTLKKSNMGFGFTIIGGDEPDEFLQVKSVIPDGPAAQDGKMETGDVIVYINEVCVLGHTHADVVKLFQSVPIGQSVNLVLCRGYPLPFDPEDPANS

MAST1, Q9Y2H9 = target: MAST1, Q9Y2H9
MAST1, Q9Y2H9, sequence (Q9Y2H9 962-1065): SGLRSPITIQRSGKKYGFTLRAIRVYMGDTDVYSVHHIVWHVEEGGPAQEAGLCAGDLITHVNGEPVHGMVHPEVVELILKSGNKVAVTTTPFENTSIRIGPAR

FRMPD2_1, Q68DX3 = target: FRMPD2_1, Q68DX3
FRMPD2_1, Q68DX3, sequence (Q68DX3 770-861): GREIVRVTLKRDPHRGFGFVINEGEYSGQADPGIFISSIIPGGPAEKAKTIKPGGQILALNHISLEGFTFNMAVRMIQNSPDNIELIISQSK

DLG4_1, P78352 = target: DLG4_1, P78352
DLG4_1, P78352, sequence (P78352 62-152): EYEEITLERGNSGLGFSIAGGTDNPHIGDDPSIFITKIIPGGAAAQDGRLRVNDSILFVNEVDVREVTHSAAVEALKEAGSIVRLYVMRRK

PDLIM1, O00151 = target: PDLIM1, O00151
PDLIM1, O00151, sequence (O00151 1-87): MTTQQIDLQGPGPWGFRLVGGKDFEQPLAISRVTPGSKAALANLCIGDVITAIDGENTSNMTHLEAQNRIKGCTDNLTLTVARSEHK

PICK1, Q9NRD5 = target: PICK1, Q9NRD5
PICK1, Q9NRD5, sequence (Q9NRD5 17-115): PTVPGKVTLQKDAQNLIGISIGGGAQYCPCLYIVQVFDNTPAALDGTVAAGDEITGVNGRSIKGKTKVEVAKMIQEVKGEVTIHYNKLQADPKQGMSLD

MPP6, Q9NZW5 = target: T11, MPP6, Q9NZW5
T11 sequence (Q9NZW5 125-219, limits assumed, looked up): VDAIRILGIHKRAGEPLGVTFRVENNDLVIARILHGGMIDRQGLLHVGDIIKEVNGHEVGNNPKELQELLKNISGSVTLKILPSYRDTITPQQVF

[1] = plain residues with an end cap or a label only (N-terminal biotin on a linker: ado-ado)
[2] = modified: phospho on S at position -3 from the C-terminal residue
[3] = modified: acetyl on K at position -1 from the C-terminal residue

Measured: pKd

FEEEAEEEVA [TUBB4B, P68371]
below the threshold: DLG1_1, Q12959; [1] | SNTB1, Q13884; [1] | SIPA1L2, Q9P2F8; [1] | GRIP1_3, Q9Y3R0; [1] | APBA2_2, Q99767; [1] | FRMPD2_2, Q68DX3; [1] | NHERF2_2, Q15599; [1] | RAPGEF6, Q8TEU7; [1] | MAGI2_3, Q86UL8; [1] | MPDZ_5, O75970; [1] | LDB3, O75112; [1] | GRIP2_5, Q9C0E4; [1] | HTRA4, P83105; [1] | IL16_1, Q14005; [1] | LRRC7, Q96NW7; [1] | LNX2_3, Q8N448; [1] | DLG4_3, P78352; [1] | MAGI2_2, Q86UL8; [1] | MAST1, Q9Y2H9; [1] | FRMPD2_1, Q68DX3; [1] | DLG4_1, P78352; [1] | PDLIM1, O00151; [1] | PICK1, Q9NRD5; [1] | MPP6, Q9NZW5; [1]
3.74: TIAM2, Q8IVF5; [1]
3.54: PTPN3, P26045; [1]
3.58: HTRA1, Q92743; [1]

LETREPTNTL [GRIP1, Q9Y3R0]
below the threshold: DLG1_1, Q12959; [1] | SNTB1, Q13884; [1] | SIPA1L2, Q9P2F8; [1] | GRIP1_3, Q9Y3R0; [1] | APBA2_2, Q99767; [1] | FRMPD2_2, Q68DX3; [1] | NHERF2_2, Q15599; [1] | RAPGEF6, Q8TEU7; [1] | MAGI2_3, Q86UL8; [1] | MPDZ_5, O75970; [1] | LDB3, O75112; [1] | GRIP2_5, Q9C0E4; [1] | PTPN3, P26045; [1] | HTRA4, P83105; [1] | IL16_1, Q14005; [1] | TIAM2, Q8IVF5; [1] | LRRC7, Q96NW7; [1] | LNX2_3, Q8N448; [1] | DLG4_3, P78352; [1] | MAGI2_2, Q86UL8; [1] | MAST1, Q9Y2H9; [1] | FRMPD2_1, Q68DX3; [1] | DLG4_1, P78352; [1] | PDLIM1, O00151; [1] | PICK1, Q9NRD5; [1]
3.61: MPP6, Q9NZW5; [1]
3.5: HTRA1, Q92743; [1]

TMQMSLKDLL [GLA, P06280]
3.62: NHERF2_2, Q15599; [1]
below the threshold: DLG1_1, Q12959; [1] | SNTB1, Q13884; [1] | SIPA1L2, Q9P2F8; [1] | GRIP1_3, Q9Y3R0; [1] | APBA2_2, Q99767; [1] | FRMPD2_2, Q68DX3; [1] | MAGI2_3, Q86UL8; [1] | MPDZ_5, O75970; [1] | LDB3, O75112; [1] | HTRA4, P83105; [1] | IL16_1, Q14005; [1] | TIAM2, Q8IVF5; [1] | LRRC7, Q96NW7; [1] | LNX2_3, Q8N448; [1] | MAGI2_2, Q86UL8; [1] | FRMPD2_1, Q68DX3; [1] | DLG4_1, P78352; [1] | PDLIM1, O00151; [1] | PICK1, Q9NRD5; [1] | MPP6, Q9NZW5; [1]
3.74: HTRA1, Q92743; [1]
3.51: GRIP2_5, Q9C0E4; [1]
4.03: MAST1, Q9Y2H9; [1]
3.69: RAPGEF6, Q8TEU7; [1]
4.07: PTPN3, P26045; [1]
3.55: DLG4_3, P78352; [1]

RRVRKLPSTTL [RPS6KA1_-3P, Q15418]
4.39: SNTB1, Q13884; [2]
below the threshold: SIPA1L2, Q9P2F8; [2] | GRIP1_3, Q9Y3R0; [2] | APBA2_2, Q99767; [2] | FRMPD2_2, Q68DX3; [2] | RAPGEF6, Q8TEU7; [2] | MAGI2_3, Q86UL8; [2] | MPDZ_5, O75970; [2] | HTRA1, Q92743; [2] | LDB3, O75112; [2] | GRIP2_5, Q9C0E4; [2] | IL16_1, Q14005; [2] | TIAM2, Q8IVF5; [2] | LRRC7, Q96NW7; [2] | LNX2_3, Q8N448; [2] | DLG4_3, P78352; [2] | MAST1, Q9Y2H9; [2] | FRMPD2_1, Q68DX3; [2] | DLG4_1, P78352; [2] | PDLIM1, O00151; [2] | PICK1, Q9NRD5; [2] | MPP6, Q9NZW5; [2]
3.69: DLG1_1, Q12959; [2]
3.57: MAGI2_2, Q86UL8; [2]
3.72: HTRA4, P83105; [2]
3.68: NHERF2_2, Q15599; [2]
4.51: PTPN3, P26045; [2]

DEDQHTQITKV [PTEN_Ac, P60484]
4.85: MAGI2_3, Q86UL8; [3]
5.03: HTRA1, Q92743; [3]
4.15: DLG1_1, Q12959; [3]
4.2: PTPN3, P26045; [3]
3.84: IL16_1, Q14005; [3]
3.75: PICK1, Q9NRD5; [3]
4.79: SNTB1, Q13884; [3]
4.58: FRMPD2_2, Q68DX3; [3]
3.98: DLG4_1, P78352; [3]
3.77: NHERF2_2, Q15599; [3] | MAGI2_2, Q86UL8; [3]
3.68: HTRA4, P83105; [3]
4.66: MAST1, Q9Y2H9; [3]
below the threshold: SIPA1L2, Q9P2F8; [3] | GRIP1_3, Q9Y3R0; [3] | APBA2_2, Q99767; [3] | RAPGEF6, Q8TEU7; [3] | MPDZ_5, O75970; [3] | LDB3, O75112; [3] | GRIP2_5, Q9C0E4; [3] | TIAM2, Q8IVF5; [3] | LRRC7, Q96NW7; [3] | LNX2_3, Q8N448; [3] | DLG4_3, P78352; [3] | FRMPD2_1, Q68DX3; [3] | PDLIM1, O00151; [3] | MPP6, Q9NZW5; [3]
